Data taken from PMC4259812 (The Journal of Cell Biology, 2014).

Target: T1, human raver1 RRM1-3 domains (residues 39-321) (human, UniProt Q8IY67 39-321)
T1 sequence: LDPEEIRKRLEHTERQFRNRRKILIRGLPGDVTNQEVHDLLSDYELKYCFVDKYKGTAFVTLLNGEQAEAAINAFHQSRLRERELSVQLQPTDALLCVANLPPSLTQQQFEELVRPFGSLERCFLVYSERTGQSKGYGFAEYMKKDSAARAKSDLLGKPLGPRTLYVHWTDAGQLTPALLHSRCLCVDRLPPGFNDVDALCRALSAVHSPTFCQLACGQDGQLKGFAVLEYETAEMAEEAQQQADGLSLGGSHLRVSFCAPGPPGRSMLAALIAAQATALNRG
Assay: SEC

binding result: binds
B1: human vinculin tail domain (Vt), wild type, residues 891-1,066 (domain or fragment)
chain: GEVINQPMMMAARQLHDEARKWSSKGNDIIAAAKRMALLMAEMSRLVRGGSGTKRALIQCAKDIAKASDEVTRLAKEVAKQCTDKRIRTNLLQVCERIPTISTQLKILSTVKATMLGRTNISDEESEQATEMLVHNAQNLMQSVKETVREAEAASIKIRTDAGFTLRWVRKTPWYQ
